Data published in the supplement of paper PMC12636428.

System: Saccharomyces cerevisiae
Assay: transcriptional activation domain activity (GFP:mCherry ratio, weighted mean of sorted bins, harmonized to initial dataset scale) (arbitrary fluorescence ratio units); higher = stronger transcriptional activation
Settings: beta-estradiol 1 µM; induction time 4 h
Protocol: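 53-aa protein tiles (fungal proteins plus yeast TF control tiles) fused C-terminally to a DBD-estrogen-binding domain-mCherry synthetic TF, integrated in S. cerevisiae (URA3 locus) with a GFP reporter. Cells were induced with 1 uM beta-estradiol for 4 h at 30 C, FACS-sorted into 8 bins by GFP:mCherry ratio and barcodes sequenced. Activity is the read-weighted mean bin fluorescence (GFP:mCherry), averaged over barcodes (median 12); tiles under 50 reads were discarded. New active-learning values were harmonized by linear fit onto the scale of the initial (Hummel et al.) dataset. The assay saturates at low and high signal.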

| Sequence | transcriptional activation domain activity |
| --- | --- |
| VHGSSFLVRYFVYITPLVLVILIPLLLGALLFKHASVAGVEMVWFCIWLEIVW | 50100 |
| AIGISGYVLPCLYRLALLVLNTTPNQPLDALLSFSHYTLQNSALAHFLPLFVN | 53400 |
| MSFLLCGFCITFFFRFFLLSLFWMIRREQGICVSRLMFFFSFFFLSFNIIIFA | 52300 |
| LFLKIYMLNPLHMTRFADLLYQGAILNRVFQPYESHLQYLLQWMCDYNLYGCA | 65100 |
| MRTHVLSMHSALLLLHCLRAVWLAPVSRPRQCLTSPAFCSSTRLAIILGGVRH | 77900 |
| YADWLLEPEQNNGTWVADVLWPAINLDLQWISSHWNQSSWDLWWPPVWGGSYW | 67800 |
| SFGDLVSVGPRQYYRPTHSLTIISICEEDNNLPASLVKRFNMLMALLVILTNT | 41300 |
| TMDKQIKYFWSSPCKFISLIYFANRYIGILEAISEIARLGFIWLQNLADILLM | 43800 |
| MEFSFTMVGIFYFLYSLAWSFSFLFFISYDHSLAGLVTIVKAFLISYYFFIFL | 26200 |
| MAVIWGLDLKDMQWSKFKGSYMFNNVYHLRKVKMIVYQIAMILCVVSESVGTA | 66800 |
| VIYSHRYVFHKKKGLRHIHVLNGWYVLSRIIAVYVLQDFLGEGSSVVVIAFLR | 58700 |
| EGLYKCRYGSYFIELSRYSFFFAMFLFFLRAGWYPFSAFWLGCFWHQLVFTAH | 40800 |
| PPPARAARPARRRGRGCQRRMSSRLCRGREGGGGGGVRLPVQVGVVMVVQLGR | 73100 |
| PLLFLLNRLPIHPPLLIVPVLLWFYCRLTIYSILFWLNNLMVQKLSLLIMSIF | 34500 |
| YHVQQSNIQLYDNDQVHIFLRKHFLYWLEALSLIGRLYEGVLALKILESILTL | 61500 |
| DKEKMEDGLIRVRLYFFTKLAGKPFYPTLLWSCLHSLTLKRLVALLRKSQLSA | 68900 |
| KSKKRSRVDEEDEEEYGASSSKAKAKKDKEKPAKKAAAKGKEKAAKGKASAKG | 26200 |
| PNWESLFGLMDFVRIRAEKLQWHLFLSLIRFMEAMIVRYMANYDRRTLHNSTE | 44300 |
| NSTIHNLFEVVLLPDLCGFCCFSMRFVVLIDLIGTLTLPVSVVYLVYLIYVIA | 46800 |
| TRKLVFKWPYVPYLLGRYTMICCLLFVWVLLVNPIDCVHNELFIALVACMAVC | 22500 |
| PHLFVNQGKLESYAGVVTRVVDLVLGIYVIDDCHMLILTYWPLLSPLTVLRTG | 51000 |

| Sequence | transcriptional activation domain activity |
| --- | --- |
| LIYNVCTFSLFWIVYRYNLLYVNNFRFDTSGLLFPRALDQLFTGIYVMAVCLI | 89400 |
| QYRYLTYSRWLVLLLYVFSWAFTVISMVLVTTNNANFVSCLLSILVCDVFYSG | 39300 |
| TPDSLCEAVTDLVRDIWYPLMTWMEFANPASGYISLDAPLFRAVLSLFHHFFA | 42900 |
| MGVLLFGFWVCCCTKLLFCHYCFFFFLFLHFFFLATVLYIVNCCMLLLVLLLG | 67700 |
| KVVLLFAGWIIKIIVAKLMLAWSQSMRKVIVQRAQLVYRFGINGMVFYSIGCA | 60400 |
| ANGDDSAAPKPEGQEDKPVESNGASASAAAPSEPQQQEGQPKAEPAEPAPATV | 26400 |
| FWGLRSLPSSPFICLFLFYCGLVLMHSGLYLGLFLFLLFLSLSVFLFLSHFSV | 30100 |
| TREMREKVEREREGRRRAREEKEKRGGGGGGGKGKKGRGGKGKGKAVPGAGAG | 49400 |
| MDSQDAGRVSSQGQAVKEKQRSRTGCRTCKSRKVKCDETRGGCRNCERLNLPC | 14700 |
| NANADAAAGNANADAGMANAGNNAAAGNANQAKGKGKKKNKAKGKAAGAGAGA | 29500 |
| MIVFSPISFVGTLWVVSCCLFFKFPLPLPFPLPLPFFFFVSLFFLYLSRKIRA | 28200 |
| MYIPPQSSVFLDIDSWGLIPVTCHLWLVMRWMYEAVMLPYLSQDGRHIVKFRY | 40700 |
| IKLMTLLYVFCRCSAVANVIYTVAITSSLDTLRVTYRISSVISLLCRTSVMMV | 43300 |
| MISFPLFDPVVFNPFLFYDILSSFCSCFSFFFSLLFFPILQYPFLFFSCFFIA | 60100 |
| LFYNQVSKLLIINCYEASYMCVIYTVGSIGNIGSRCQNLRTGSTFKTLVKYID | 54000 |
| PAASTTHATAAPPAAPSPPSQTTPSAPATAASAPRTSPRPCASSCTSSATSRS | 31600 |
| SATEFVTVGGTGNVYHWDMEYSFSRNDDDNEDEVRVAAPEELQGQCLKFFHTG | 51000 |
| SVVLGVLHMSLSICTQVPNFIHFGRPSSIITEFLPQILFLHCLFGYLVFMIIY | 79100 |
| MGFLTVHSCVFCFVVWVFFFPFFFLRDWFFSHSIFFLSLFFLVFFYIHLFLLG | 43700 |
| KKGTIMTIASPSTVRRNMYDWLPSLFYFMPNSILGMWFDMTLPKLFFFLFLSQ | 63400 |
| MCLSFFVFLLYIYQITFSYLLSIMSQLELCRDCFFGPLALLLVIVILSSLCMY | 69700 |

| Sequence | transcriptional activation domain activity |
| --- | --- |
| ALDDKGNRDAFYSVLVNLMSKLCWAIVQYLESNSLRATYVIEARISEYTKFSI | 42500 |
| IIQKLCFITVKLFFTKYIPLQAILINLILIGYLMFVVRHFPYRYTTLNNLELI | 55000 |
| CWWPFGIPVYMFFHAPETVHYSYFLFFFLSLSLPAMLNIYLVIFIVSWLKSVP | 38200 |
| SSKHDYKRSRRSKTKDEDDDDDDEDRKRRKRRKEREHSKKKEKEERRSVLTGK | 30300 |
| SGGKTMVSGSFAGESGRLQGSGPFGRGGGRESREQAYDNGRAKIARLAHGLRL | 22400 |
| FATFYVARDVFHVTPNELHSIMYLHISSAPHFVIFSTRVPGFWWENMPHWLFF | 51500 |
| VVGISCCFLCMIVILLYFFPLLLFSSLRPLIYLVELLPLTCHIALGGSLYLTL | 77600 |
| DADEAEGAPDAAGEGAAKKKKKRKPRKKKKGGAGGGGGGGPKVQTSPPRVPIH | 11400 |
| MGARYWILECGDWLMAKAVPNSLPIVSFLFLLFFPWPFFVFILYLTLIALYSS | 42400 |
| MEWVRLLSKEVLLFYSIFFFSFVSFTVLTLFPLHESSILSRLLIFIYPLRHLV | 44700 |
| PAASGSDDDEPIAAKKPSAPRKRKAKVESDSDDEKPIAKKLAAKKPRASKVKA | 14100 |
| PFCMVNAKTVTLRMIESIHKLRRVLVRSEDEIIRLISPVSAKVLCTCLPLFEM | 60400 |
| PGVRGNTESIFLLICNLPYLEHPDKVARTVYKIIWGEHHRNLLRLTYWLHRCP | 68200 |
| PKPKAKTPSKAKKKAEPIPKAKAAPKPKEKTTPNTPARRGRPRKEKAAAETPM | 37500 |
| HYFLVIMVLGMIELLRFPETRDAGVSLIRELLAFKFAKTSWDVVICNQLEKYL | 41300 |
| KHPQNTTTDIENEVENPVTDDNGNLKLELPDNLDNADFSKLLEFDAKNDEALF | 33600 |
| VLMLIVSNLRLMIENFKKYGVLICLSCHDYRRQDVIYGSILYLLVPCHLFVAY | 41900 |
| MCPVLFCFYSLMILIFFLSFLFRTSYIYTLYFPGLFVCCLFFLFLLFLSLSQW | 73200 |
| PAPAAKKEEKPAAATAEAPKEEAAAAVAAEEPKETKEEEKKEEAKEEKKEEAK | 15800 |
